Source: the nanobody polyreactivity screen of Harvey et al. (2022)

Test: yeast display, Sf9 membrane polyspecificity reagent, FACS + sequencing; frameworks hold sequencing errors
Method in brief: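 Genes from sorted yeast were amplified by colony PCR, read by MiSeq 2 × 250 sequencing and filtered on CDR length. These cells carried a synthetic nanobody library in Saccharomyces cerevisiae BJ5465 and were sorted by FACS into low and high (top ~1%) gates on anti-HA and streptavidin fluorescence. Polyreactivity is labelled according to the gate of origin.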

Row | Sequence | polyreactivity (PSR sort gate)
1 | QVQLVESGGGLVQAGCSLRLSCAASGRTFYYYAMGWYRQAPGKERELVAAISKSGGSTYYADSVKGRFTISRDNAKNTVYLQMNSLKPEDTAVYYCAALTTHAPHSYNYWGQGTQVTVSS | low polyreactivity
2 | QVQLVESGGGLVQAGGSLRLICAASGSIIGVNAMGWYRQAPGKERELVAAITSTGGSTYYADSVKGRFTISRDNAKNTVYLKMNSLKPEDTAVYYCNTHYSKSIGEGYAGFDYWGQGTQVTVSS | low polyreactivity
3 | QVQLVESGGGLVQAGGSLSLSCAASGSISLVYAMGWYRQAPGKERELVAAISASGGRTYYADSVKGRFTISRDNAKNTVYLQMNSLKPEDTAVYYFSKDVKKIEFDYWGQGTQVTVSS | high polyreactivity
4 | QVQLVESGGGLVQAGGSLRLSCAASGITFGAYAMGWYRQAPGKERELVAVITRGADTYYADSVKGRFTISRDNAKNTVYLQMNSLKPEDTAVYYCAAEIDLPYYYGSDDDDYWGQGTQVTVSS | high polyreactivity
5 | QVQLVESGGGLVQAGGSLRLSCAASGFTFVRYAMGWYRQAPGKDRELVAAISKSGGRTYYTDSVKGRFTISRDNAKTTVYLQMNSLKPEDTAVYYCAADPVSDYYGYGYWGQGTQVTVSS | high polyreactivity
6 | QVQLVESGGGLVQAGGSLRLSCAASGSNFAINAMGWYRQAPGKERELVAAITRTASTYADSVKGRFTISRDNAKNTVYLQMNSLKPEDTAVYYCNADFAYRYYYWGQGTQVTVSS | low polyreactivity
7 | QVQLVESGGGLVQAGGSLRLSSAASGRIFYPYTIGWYRQAPGKERELVAAISSTGRTNYADSVKGRFTISRDNAKNTVYLQMNSVKPEDTAVYYCAKGFRKYSLGPPGNDYWGQGTQVTVSS | high polyreactivity
8 | QVQLVESGVGLVQAGGSLRLSCAASGLTFYLYSMGWYRQAPGKERELVAAINSRGGNTYYADSVKGRFTISRDKAKNTVDLQMNSLKPEDTAVYYCAADWGPWYYYWGQGTQVTVSS | high polyreactivity
9 | QVQLVESGGGLVQAGGSHRLSCAASGSTFIDYAMGWYRQAPGKERELVAAITNGGNTKYADSVKGRFTISRDNAKNTVYLQMNSLKPEDTAVYYCAREPSIFTPSYDYWGQGTQVTVSS | low polyreactivity
10 | QVQLRESGAGGRQPAPELRGERQYFYWSADGLVSQPPGKEREFVAGIDRGTITNYADSVRGRFTISRDNAKNTVYLQMNSLKPEDTAVYYCNAEYRRRPKLGDEDEYWGHGTQVTVSS | high polyreactivity
11 | QVQLVETGGGLVKAGGSLRLSSAASGSIFVYYVMGWYRQAPGKERELVAAINSDGDGTYYADSVKGRFTISRDNAKNTVYLQMNSLKPEDTAVYYCAASAFTGVDTYGYGGQGTQVTVSS | low polyreactivity
12 | QVQLVESAGGLVQAGGSHRLSCAASASIFDGYAMGWYRQAPGKEREVVAAIRRSGVDTYYADSVKGRFTISRDNAKTTVYLQMNSLKPEDTAVDYCAADSYPSPNFEDNYWRQGTQVTVSS | low polyreactivity
13 | QVQLVESGGGLVQAGGSLRLSCAASGFIFYAMGWYRQAPGKERELVAAITLSDGTTYYADSVKGRFTISRDNAKNTVYLQMNSLKPEDTAVYYCAAEYSVPYRGWDGYEYWGQGTQVTVSS | low polyreactivity
14 | QVQLVESGGGLVQAGGSLRLSCAASGFTFLYNVMGWYRQAPGKERELVAAISQSGTDTYYADSVKGRFTISRDNAKNTVYLQMNSLKPEDTAVYYCATEYYSQPRDDSWGQGTQVTVSS | low polyreactivity
15 | QVQLVESGGGLVQAGGSLRLSCAASGRTFPANTMGWYRPAPGKERELVAAISSRGGSTYYADSVKGRFTISRDNAKKTVYLQMNSLKPEDTAVYYCNAYLYFPRYDYWGQGTQVTVSS | high polyreactivity
16 | QVQLVESGGGLVQAGGSLRLSCAASGFTFARNGMGWYRQATVKEREFVAAITRSGGRTYYADSVKGRFTISRDNAKNTVYLQMNSLKPEDTAVYYCAAATSYGKSEYDYWGQGTQVTVSS | high polyreactivity
17 | QVQLVESGGGLVQAGGSLRLSCAASGRIFYSYAMGWYRQAPGKERELVAAISSAGSTYYADSVKGRFTISRDNAKNTVYLQMNSLKPEDSAVYYCAAYRAGNSYYPRLNYWGQGTQVTVSS | high polyreactivity
18 | QVQLVESGGGLVQAGGSLRLSCAASGRIFRPYAMGWYRQAPGKEREFVATIRFTTGRTYYADSVKGRFTISRDNAKNTVYLQMNSLKPEDTAVSYFAADFAFVNYAKISYTTHDYWGQGTQVTVSS | high polyreactivity
19 | QVQLVESGGGLVQAGASLRLSCAPSGLIFTYNARGWYRQAPGKERELVAAITYRVSSTYYADSVKGRFTISRDNAKNSVYLQMNSLKPEDTAVYYCAAPRLIRFVTYYSWGLGTQVTVSS | high polyreactivity
20 | QVQLVESGGGLVQAGGSLRLSCAASGFTFTQYAMGWYRPAPGKECELVAAISRSGGSTYYADSVKGRFTISRDNAKNTVYLQMTSLKPEDTPVYYCAADWRFRYDYWGQGTQVTVSS | high polyreactivity
21 | QVQLVESGGGLVQAGGSLRLSCAASGSTFTGYAMGWYRQAPGKERELVAAISISGGRTFYADSVKGRFTISRDNAKNTVYLQKNSLKPEDTAVSYCAASLRGSKYSFDYWGQGTQVTVSS | high polyreactivity
22 | QVQLLESGGGLVQAGGSLRLSCAASGFTFEDNAMGWYRKAPGKERELVAADGTNYADSVKGRFTISRDNAKNTVYLQMNSLKPEDTAVYYCARYARQVTPLSIGLYDYWGQGTQVTVSS | low polyreactivity

Row | Sequence | polyreactivity (PSR sort gate)
23 | QVQLVESGGGLVQAGGSLRLSCAASGSTFAINVMGWYRQAPGKERELVAAISSVGGTNYADSVKGRFTISRDNAKNTVYLQMNSLKPEDTAVYYCATVYSSWTVRYDYWGQGTQVTVSS | low polyreactivity
24 | QVQLVESGGGLVQAGGSLRLSCAASGRIFDKYTMGWYRQAPGKERELVAAISKSGSGTFYADSVKGRFTISRDNAKNTVYLQMNSLKPEDTAVYYCARVYTVGTGRSWRLDYWGQGTQVTVSS | high polyreactivity
25 | QDQLVESGGGLVQAGGSLRLSSAASGLTLHGNAMGWYRHAPGKERELVATITSSGGSTFYADSVKGRFTLSRDNAKNTVYLKMNSMKPEDTAVYYCNADAPYSVDYYVRFDYWGQGTQVTVSS | low polyreactivity
26 | QVQLVESRGGLVQAGGSLSLSCAASGSTYNASAMGWYRQATGKERELVAAISSGGSTYYADSVKGRFTISRDNANNTVYLQMNSLKPEDTAVLYCAAVLTGHYYRFDYWGQGTQVNVSS | low polyreactivity
27 | QVQLVESGGGLVQAGGSLRLSCAASGRTFPGYAMGWYRQAPGKERELVAVISWSGGRTNYADSVKGRFTISRDNAKNTVYLQMNSLKPEDTAVYYCAARYHGHSNDYWGQGTQVTVSS | low polyreactivity
28 | QVQLQESGGGLVKAGGSLRLSCAASGNISPRDAMGWYRQAPGEERDLVASNAYSAITYYADGVKGRYSISRDNAKNTVYLQMNSLKPEDTEVYYCAVYQFTYPVFPAYWGQGTQVSVSS | low polyreactivity
29 | QVQLVESGGGLVQAGGSLRLSCAASGRIFLYTAMGWYRQAPGKERELVAAIDGGGTTYADSVKGRFTISRDNAKNTVYLQMNSLKPEDTAVYYCAGDWYYQYSIYRYGYWGQGTQVTVSS | low polyreactivity
30 | QVQLVESGGGLVQAGGSLRLSCASSGFTFYSYAMGWYRQAPGKERELVAAISKRGGSTYYADSVKGRFTISRDNAKNTVYLQMNSLQPEDTAVYYCNADYPYYYGYDYWGQGTQVTVSS | high polyreactivity
31 | QVQLVESGGGLVQAGGSLRLSCAASGYTFVNYAMGWYRQAPGKERELVAAITSRGSSTYYADSVKGRFTISRDNAKNTVYLQMKSLKPEDTAVYYCFVHVRNHDYWGQGTQVTVSS | high polyreactivity
32 | QVQLVESGGGLVQAGGSLRLSCAASGSTFYAKAMGWYRQAPGKERELVATINRRGNTYYADSVKGRFTISRDNAKNTVYLQMNSLKPEDTAVYYCAADYRRYGSYDYWGQGTQVTVSS | low polyreactivity
33 | QVQLVESGGGLVQAGGSLRLSCAASGRIFGWYAMGWYRQAPGKEREFVAAITVTGGSTYYADSVKGRFTISRDNAKNTVYLQMNSLKPEDTALYYCAADRWYTRTGFDYWGQVTQVTVSS | low polyreactivity
34 | QVQLVESGGGLVQAGGSLRLSCAASGRTSRVYAMGWYRQAPGKERELVAAITWRGGNTYYADSVKGRFTISRDNAKNTVYLQMNSLKPEDTAVYYCAADKYTHKPHGDYWGQGTQVTVSS | high polyreactivity
35 | QVQLVESWGGLVQAGGTLSLSCADSGLIFYFYDRGWYRQAPGKESEFVATISSTGGSTYYADSVKGRFTISRDNAKNTVYLQMNSVKPEDTAVYVCADRGWFPGFRYDYWGQGTQVTVSS | low polyreactivity
36 | QVQLVESGGGLVQAGGSLRLSCAASGFTFYKNTMGWYRQAHGTERELVAAISSSGSSTYYADSVKGRFTISRDNAKNTVYLQMNSLKPEDTAVYYCAAGRFAYHDDYWGQGTQVTVSS | high polyreactivity
37 | QVQLVESGGGLVQAGGSLRLSCAASGITFYLYDMGWYRQAPGIERELVASITSDGSTDYADSVKGRFTISRDNAKNTVYLQMNSLKPEDTAVYYCNARVTYSWYRFGRSGDDSWGHGTQVTVSS | low polyreactivity
38 | QVQLVESGGGLVQAGGSLRLSCASSGSIFDFNAMGWYRQAPGKERELVATIRYSGGSTYYADSVKGRFTISRDNAKNTVYLQMNSLKPVDTAVYYCAADPDWTHWFAYYYHYGYWGQGTQVTVSS | low polyreactivity
39 | QVHLVESGGCLVQAGGTLRLSCAATGSIFYNYDMRWYRQAPGKEREFVAAITWSGTSTYYADSVKGRFTISRDNAKNTVYLQMNSLKPEDSAVYYCNALVRRRPGYIRYDYWGQGTQVTVSS | low polyreactivity
40 | QVQLVESGGGLVQAGGSLRLSCAASGSTFPLYAMGWYRQAPGKERELVATITGSGGSTNYADSVKGRFTISRDNAKNTVYLQMNSLKPEDTAVYYCNARRRRLVSYYYWGQGTQVTVSS | high polyreactivity
41 | QVQLVESGGGLVQAGGSLRLSCAAYGRIFYRNVMGWYRQAPGKERELVAAITYRTGSTYYADSVKGRFTISRDNAKNTVYLQMNSLKPEDTAVYYCNVVPRNGQTWGYEYDYWGQGTQVTVSS | high polyreactivity
42 | QVQLVESRGGLVQAGGSLRLSCAASGSTFGWYAMGWYRQAPGKERELVASITSGGRTNYADSVKGRFTISRDNAKITVYLQMNSLKPEDTAVYYCAKRVYGSYSLYDYWGQGTQVNVSS | low polyreactivity
43 | QVQLVESGGGLVQAGGSLRLSCAASGIIFTDYAMGWDRQAPGKERELVAAISSGGGSTYYADSVKGRFTISRDNAKNTVYIQLNSQKPEDTAVYYCAAEGYLISGACDYLYDYYWGQGTQVTVSS | high polyreactivity
